The source of these data is patent US12318454.

The target of experiment [1] is dog MT1-MMP hemopexin domain (dog). The experiment can be described thus: FP competition, dog MT1-MMP hemopexin domain.
In experiment [2] the target is human MT1-MMP hemopexin domain (residues Cys319-Gly511, N-terminally His6-tagged soluble protein) (human) (UniProt P50281). Nature of the experiment: FP competition, Human/cyno MT1-MMP hemopexin domain.
Experiment [3] has the same target. The experiment can be described thus: FP competition on human MT1-MMP hemopexin domain (per paragraph 249; tracer not given).
Experiment [4] shares this target. Nature of the experiment: FP competition on human MT1-MMP hemopexin domain (footnote a: tracer 17-69-07-N040; footnote e: 17-69-07-N004).
Experiment [5] shares this target. Nature of the experiment: fluorescence polarisation with the fluoresceinated peptide. On the technique in general: Polarisation of emitted light reports the rotation of a fluorescent probe.
For experiment [6] the target is unchanged. The experiment can be described thus: FP competition on human MT1-MMP hemopexin domain, tracer 17-69-07-N040 (footnote f).

Numbered stars: 1 amine (or outer) side, 2 acyl side, 3 side chain; on linkers, the order of the positions; unused ones are H or OH. Bridge positions count the residues as written; N and C are the ends. Square brackets hold non-standard residues; d marks the D form. Ends that are not written are not given here. * marks the point of attachment. DM4 = maytansinoid, two hindering methyls on maytansine side, COc1cc2cc(c1Cl)N(C)C(=O)C[C@H](OC(=O)[C@H](C)N(C)C(=O)CCC(C)(C)S*)[C@]1(C)O[C@H]1[C@H](C)[C@@H]1C[C@@](O)(NC(=O)O1)[C@H](OC)/C=C/C=C(\C)C2; DM3 = maytansinoid, one hindering methyl on maytansine side, COc1cc2cc(c1Cl)N(C)C(=O)C[C@H](OC(=O)[C@H](C)N(C)C(=O)CCC(C)S*)[C@]1(C)O[C@H]1[C@H](C)[C@@H]1C[C@@](O)(NC(=O)O1)[C@H](OC)/C=C/C=C(\C)C2; disulfide linker, one methyl on bicycle side = not defined here; fluorescein = fluorescein label on the Lys side chain; unhindered disulfide linker = not defined here; 1Nal = N[C@@H](Cc1cccc2ccccc12)C(=O)O; TBMB = c1c(C[*:1])cc(C[*:3])cc1C[*:2]; disulfide linker = not defined here; Tle = CC(C)(C)[C@H](N)C(=O)O; DM1 = maytansinoid; βAla = NCCC(=O)O; Sar = CNCC(=O)O

With H-G[Sar][Sar][Sar][Sar][Sar][Sar][Sar][Sar][Sar][Sar]ACYNEFGCEDFYDIC (linker 13-19-26 via TBMB; not fully specified (C-terminus)) [17-69-07-N219], the Kd in experiment [1] was found to be 0.9 nM; in experiment [2], 0.82 nM; in experiment [3] it was 0.82 nM; in experiment [4], 0.82 nM.

B1: BT17BDC-18 (peptide)
peptide: {DM1-disulfide linker, one methyl on bicycle side}-[βAla][Sar][Sar][Sar][Sar][Sar][Sar][Sar][Sar][Sar][Sar]AC[dA]NE[1Nal][dA]CEDFYD[Tle]C
modifications: linker 13-19-26 via TBMB; reading uncertain; also: exact linker structure not given here
In turn, B1 came in with a Kd in experiment [4] of 0.99 nM.

B2: 17-69-07-N258 (peptide)
peptide: fluorescein-[βAla][Sar][Sar][Sar][Sar][Sar][Sar][Sar][Sar][Sar][Sar]AC[dA]NE[1Nal][dA]CEDFYD[Tle]C
modifications: linker 13-19-26 via TBMB; not fully specified (C-terminus); printed as Fluorescein-(bAla)-Sar10-A-(17-69-07) D-Ala1 1Nal4 D-Ala5 tBuGlyl1
The molecule B2 gave a dissociation constant (Kd) in experiment [5] of 2.2 nM.

B3: BT17BDC-20 (peptide)
peptide: {DM3-disulfide linker, one methyl on bicycle side}-[βAla][Sar][Sar][Sar][Sar][Sar][Sar][Sar][Sar][Sar][Sar]AC[dA]NE[1Nal][dA]CEDFYD[Tle]C
modifications: linker 13-19-26 via TBMB; reading uncertain; also: exact linker structure not given here
Molecule B3 came in with a Kd in experiment [6] of 2.95 nM.

B4: BT17BDC-19 (peptide)
peptide: {DM4-disulfide linker}-[βAla][Sar][Sar][Sar][Sar][Sar][Sar][Sar][Sar][Sar][Sar]AC[dA]NE[1Nal][dA]CEDFYD[Tle]C
modifications: linker 13-19-26 via TBMB; reading uncertain; also: exact linker structure not given here
For the molecule B4, the Kd in experiment [4] was found to be 0.5 nM. This counts as sub-nanomolar.

For Ac-G[Sar][Sar][Sar][Sar][Sar][Sar][Sar][Sar][Sar][Sar]ACYNEFGCEDFYDIC (linker 13-19-26 via TBMB; not fully specified (C-terminus)) [17-69-07-N225], the Kd in experiment [3] stood at 0.95 nM.

B5: BT17BDC-17 (peptide)
peptide: {DM1-unhindered disulfide linker}-[βAla][Sar][Sar][Sar][Sar][Sar][Sar][Sar][Sar][Sar][Sar]AC[dA]NE[1Nal][dA]CEDFYD[Tle]C
modifications: linker 13-19-26 via TBMB; reading uncertain; also: exact linker structure not given here
B5 showed a dissociation constant Kd in experiment [4] of 0.7 nM.

What is called Kd is the equilibrium constant for the complex coming apart. Low readings indicate higher affinity, high ones lower affinity.
